Read-outs that look alike come from different tables or passages of the source.
Tests used:
[1] = test system: aroA-mutant E. coli strain AB2829; experiment: Growth in M63 restrictive media with different concentrations of glyphosate; type: cell-based; conditions: 50 mM glyphosate
Protocol: aroA gene-mutant E. coli strains AB 2829 carrying plasmid pKU2004, pKU2006 or pKU2007 were inoculated in liquid LB medium and incubated overnight. A sample of the culture was centrifuged at 4000 rpm for 3 min and re-suspended in 0.9% physiological saline. After a further centrifugation, the supernatant was discarded. The pellets were re-suspended in physiological saline and inoculated at an initial concentration of OD600 0.04 into a liquid media comprising 0, 50 or 100 mM glyphosate for overnight culture at 37° C. Absorption (OD600) was measured at intervals.
In order to test whether the mutated EPSPS fragments perform functional complementation in vivo, plasmid pKU2105 and pKU2333 were constructed, which encode the N-terminal fragments N218-G96A and N227-G96A of E. coli EPSPS, respectively. They were introduced into aroA-mutant E. coli strain AB2829 (aroA−, from Yale University) together with their corresponding plasmids encoding C219 and C228 respectively. The growth was detected in the M63 restrictive media with different concentrations of glyphosate.

[2] = test system: EPSPS
Protocol: (1) 95 μl substrate (50 mmol/L HEPES buffer (pH 7.5), 1 mmol/L PEP, 1 mmol/L S3P) was pre-warmed at 28 °C in an incubator for 5 min.
(2) 5 μl enzyme was added and the reaction was kept in an incubator at 28 °C for 1-20 min (depends on the enzyme activity). After that, 800 μl MG/AM/NP was added and the reaction was mixed for 1 min.
(3) 100 μl 34% sodium citrate was added and the reaction was mixed for half an hour. The OD660 was measured on a spectrometer.
The enzyme activities and the Km values to substrates of these three proteins were measured.

B1: EPSPS: E. coli wild type full length 5-enolpyruvylshikimate-3-phosphate synthase (protein, UniProt P0A6D3 1-427, looked up)
chain: MESLTLQPIARVDGTINLPGSKSVSNRALLLAALAHGKTVLTNLLDSDDVRHMLNALTALGVSYTLSADRTRCEIIGNGGPLHAEGALELFLGNAGTAMRPLAAALCLGSNDIVLTGEPRMKERPIGHLVDALRLGGAKITYLEQENYPPLRLQGGFTGGNVDVDGSVSSQFLTALLMTAPLAPEDTVIRIKGDLVSKPYIDITLNLMKTFGVEIENQHYQQFVVKGGQSYQSPGTYLVEGDASSASYFLAAAAIKGGTVKVTGIGRNSMQGDIRFADVLEKMGATICWGDDYISCTRGELNAIDMDMNHIPDAAMTIATAALFAKGTTTLRNIYNWRVKETDRLFAMATELRKVGAEVEEGHDYIRITPPEKLNFAEIATYNDHRMAMCFSLVALSDTPVTILDPKCTAKTFPDYFEQLARISQAA
modifications: full-length
notes: E. coli wild type full length 5-enolpyruvylshikimate-3-phosphate synthase
[1]
  growth in M63 medium containing 50 mM glyphosate: inhibited from growth
[2]; PEP and S3P both 1.0 mM
  specific activity: 44 ± 2 mol/min/mg
[2]; read-out: Km [PEP], S3P 1 mM, PEP varied from 50 to 200 μM
  Km: 14 ± 3 µM
[2]; read-out: Km [S3P], PEP 1 mM, S3P varied from 50 to 200 μM
  Km: 45 ± 1 µM
